One experiment concerns the target SARS-CoV-2 Spike RBD区域蛋白 (SARS-CoV-2, UniProt P0DTC2 319-541). Nature of the experiment: competitive ELISA, GD1-69 against ACE2 for SARS-CoV-2 S protein / RBD. Background: In an ELISA, binding on a coated surface is turned into a signal by an enzyme label.
The next experiment has as its target SARS-CoV-2 Spike蛋白 (SARS-CoV-2, UniProt P0DTC2 16-1213). Kind of experiment: cell-based or functional assay.

B1: GD1-69 (antibody, human IgG1, kappa, V domains shown)
VH: EVQLLESGGGLVQPGGSLRLSCAASGFTFSNYAMSWVRQAPGKGLEWVSVIYSGVSSTYYEDSVKGRFTISRDNSKNTLYLQMNSLRAEDTAVYYCAKDPSYDTRGYIFDYWGQGTLVTVSS
VL: DIVMTQSPATLSVSPGERATLSCRASQSVSTNLAWYQQKPGQAPRLLIYGTSTRATGVPARFSGSGSGTEFTLTISSLQSEDFAIYYCLQYNNWRTFGQGTKLEIKR
notes: also called 目标抗体; GD1-69抗体
What is called IC50 is the concentration needed to halve the response being measured. Lower therefore signals higher potency. B1 registered an IC50 with SARS-CoV-2 Spike RBD区域蛋白 of 0.26 µg/mL. Besides, in the experiment with SARS-CoV-2 Spike蛋白, the “噬斑减少中和测试 (活SARS-CoV-2病毒, Vero E6细胞) IC50” value is 0.44 µg/mL and the “基于假病毒的中和试验 IC50” value was 1.77 µg/mL.

Values taken from patent publication CN114349850A (JIANG QINGHUA; WANG PINGPING; STEP HIGH; ZHAO DONGMING, dated 2022).
